B1: C22orf15 (parent)
chain: PRGRAHLLPNPYQQDFLGLPEELR
B2: SOAT1 (parent)
chain: GVLILFLTFFAFLHCWLNAFAEML

Variants of: B1
Assay: protein stability index of a GFP-peptide fusion (GPS, HEK-293T) (PSI 1-6); higher = more stable
Settings: c terminus: a fixed tail appended
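Note: lentivirally expressed fusions sorted by FACS into six bins by GFP to DsRed ratio, PSI derived from sequencing read proportions per bin multiplied by bin number.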

Variant	protein stability index
R2M	4.08
R2N	3.46
R2H	3.87
R2P	4.18
R2Q	4.24
R2G	4
R2I	3.62
R2D	3.44
R2F	3.31
R2A	4.04
R2C	2.26
R2S	4.15
R2K	3.75
R2E	4.69
R2T	4.22
R2V	3.81
R2L	3.76
P1W	2.92

Variant	protein stability index
P1K	3.22
P1F	2.61
P1H	3.6
P1Y	3.11
P1M	2.93
P1D	4.1
P1L	2.64
P1V	2.83
P1R	3.06
P1C	2.22
P1T	3.52
P1G	3.75
P1Q	3.72
P1A	3.34
P1I	2.37
P1E	3.96
P1N	3.69
P1S	3.23

Variants of: B2
Assay: as above
Settings: c terminus: a fixed tail appended

Variant	protein stability index
E22Q	2.63
E22V	3.24
E22K	2.31
E22W	3.25
E22T	2.47
E22M	3.66
E22S	3.37
E22L	2.92
E22F	3.34
E22H	3.56
E22C	2.74
E22I	2.95
E22R	1.7
E22A	1.99
E22G	2.16
E22N	2.79
E22D	2.19
E22Y	2.22
E22P	3.59
L17Y	3.42
L17W	2.44
A19T	2.82

Variant	protein stability index
A19Q	2.59
A19K	2.96
A19F	1.68
A19R	1.64
A19S	2.83
A19C	2.73
A19E	3.48
A19Y	2.29
A19L	3.05
A19G	3.14
A19N	2.8
A19H	3.33
A19D	2.85
A19M	3.03
A19P	2.31
A19W	1.73
A19V	2.77
A19I	2.76
M23Y	2.54
M23E	1.75
M23L	2.88
M23D	2.29

Variant	protein stability index
M23H	2.55
M23T	2.98
M23A	2.44
M23N	2.68
M23P	3.44
M23Q	2.73
M23G	2.18
M23C	3.08
M23R	2.77
M23I	2.85
M23W	2.61
M23V	2.08
M23S	3.71
M23K	2.91
M23F	2.67
A21T	2.29
A21N	2.76
A21D	2.14
A21I	2.93
A21Q	3.1
A21F	3.12
A21M	3.62

Variant	protein stability index
A21L	1.4
A21P	2.29
A21R	2.11
A21Y	1.84
A21C	2.48
A21G	2.77
A21V	2.73
A21K	2.01
A21E	1.83
A21H	2.98
A21S	1.84
L24V	2.75
L24R	2.33
L24A	2.69
L24S	3.29
L24F	2.23
L24Q	3.14
L24I	2.63
L24Y	2.88
L24P	2.68
L24G	3.4
L24E	3.41

Variant	protein stability index
L24C	3.67
L24N	2.98
L24T	3.04
L24W	2.06
L24K	3.06
L24M	2.72
L24D	1.75
F20M	2.85
F20R	2.89
F20I	2.67
F20V	3.21
F20K	2.71
F20E	2.67
F20T	1.98
F20W	3.57
F20C	2.33
F20H	3.21
F20Y	2.9
F20S	2.94
F20L	2.56
F20N	2.01
F20A	3.08

Variant	protein stability index
F20D	3.92
F20G	2.22
F20P	2.93
N18R	2.55
N18Q	2.81
N18T	3
N18C	1.59
N18F	3.51
N18W	2.94
N18I	2.85
N18V	2.45
N18M	2.78
N18S	2.51
N18H	2.92
N18D	1.71
N18K	2.48
N18G	2.52
N18L	3.64
N18E	3.51
N18Y	2.61
N18P	3.85
